Assay [1] concerns the target T1, 8-histidine tagged recombinant wild-type protein EGFRwt (UniProt P00533 25-645, limits assumed).
T1 construct: not shown: 8-histidine tag
The assay is described as follows: SPR, captured by anti-human Fc, 25 C.

Assay [2] concerns the target T2, Monomeric 8-histidine tagged human EGFRvIII extracellular domain (human, UniProt P00533 298-645).
T2 construct: Analyte in all SPR assays; not shown: 8-histidine tag
The assay is described as follows: SPR, scFv-Fc captured by anti-human Fc, 37 C. How it is done:
The scFv fragment was then fused to human IgG1 Fc moiety to facilitate recombinant expression and purification. Affinities of the scFv-Fc fusion proteins were measured at 37° C. on a surface plasmon resonance Biacore™ T200 biosensor equipped with an anti-human Fc coupled CM4 sensor chip (GE Healthcare Inc., Piscataway, N.J.) as described above. scFv-Fc proteins were captured by anti-human Fc. Monomeric 8-histidine tagged human EGFRvIII extracellular domain was then injected as the analyte at 10-fold dilution series starting at 1000 nM.
In general terms: In SPR one partner is held on a chip, and binding of the other changes the refractive index at the surface.

These results are taken from patent publication US20190144550A1 (Pfizer, published 2019).

B1: 32A10.HL scFv-Fc protein (Fc fusion)
chain: QVTLKESGPVLVKPTETLTLTCTVSGFSLSNARMGVSWIRQPPGKALEWLAHIFSTDEKSIRRSLRSRLTLSKDTSKSQVVLTMTNMDPVDTATYFCARDSSNYEGYFDYWGQGTLVTVSSGGGGSGGGGSGGGGSGGGGSEVVMTQSPATLSVSPGERVTLSCRASQSVSSNFAWYQQRPGQAPRLLLYGATTRATGLPGRFSGSGSGTENILTISSLQSEDFAIYFCQQYKDWPFTFGPGSKVDIK
notes: HL: heavy-chain variable domain at the N-terminus; not shown: human IgG1 Fc moiety
One may read the Kd as the free concentration of one partner at which half of the binding sites on the other are occupied at equilibrium, for simple one-to-one binding. Higher therefore signals weaker binding. For orientation: koff means the first-order rate constant of dissociation. As a reminder, the kon is the second-order rate constant of association. Low readings indicate slower complex formation, high ones faster complex formation. As to B1, in assay [1], the binding result is recorded as “no binding (tested: 1000 nM)”. For the same molecule, in assay [2], the affinity, expressed as Kd, was 24.5 nM; the koff was found to be 0.0012 s⁻¹; the kon worked out at 47000 M⁻¹ s⁻¹.

B2: C6.HL scFv-Fc protein (Fc fusion)
chain: QVQLVQSGAEVKKPGSSVKVSCKASGDTFSSNAISWVRQAPGQGLEWMGVIIPIFGTADYAQKFQGRVTITADESTSTAYMELSSLRSEDTAVYYCARHTYHEYAGGYYGGAMDPWGQGTLVTVSSGGGGSGGGGSGGGGSGGGGSELQSVLTQPPSASGTPGQRVTISCSGSSSNIGSNYVYWYQQLPGTAPKILIYRNNQRPSGVPDRFSGSKSGTSASLAISGLRSEDEADYYCAAWDDNLSGWVFGTGTKLTVL
notes: as for B1
As to B2, the binding result in assay [1] is “no binding (tested: 1000 nM)”. In addition, in assay [2], the dissociation constant (Kd) was 1060 nM, the koff was found to be 0.02 s⁻¹ and the kon was found to be 19000 M⁻¹ s⁻¹.

B3: 20B9.HL scFv-Fc protein (Fc fusion)
chain: QVTLKESGPVLVKPTETLTLTCTVSGFSLSNARMGVSWIRQPPGKALEWLGHIFSTDEKSYSTSLRGRITISKDTSRGLVVLTLTNMDPVDTATYYCARDSSNYEGYFDFWGPGFLVTVSSGGGGSGGGGSGGGGSGGGGSEIVMTQSPATLSVSPGERATLSCRVSQSIGANLAWYQQKFGQAPRLLIYGASTRATGIPVRFSGGGSGTEFTLTISSLQSEDFAIYSCQQYIYWPFTFGPGTTVDIK
notes: as for B1
For B3, the binding result in assay [1] is on record as “no binding (tested: 1000 nM)”. In assay [2], the Kd was determined as 73.8 nM, the koff amounted to 0.0018 s⁻¹ and the kon turned out to be 24000 M⁻¹ s⁻¹.

B4: 30D8.LH scFv-Fc protein (Fc fusion)
chain: DIVMTQSPLSLPVTPGEPASISCRSSQSLLHNKRNNYLDWFLQKPGQSPQLLIYLASNRASGVPDRFSGGGSGTDFTLKISRVEAEDVGVYYCMQAQQTPITFGQGTRLEIKGGGGSGGGGSGGGGSGGGGSEVQLVESGGGLVKPGGSLRLSCEASGFTFSDAWMSWVRQAPGKGLEWVGRIKSKTDGGTTDYVVPLNGRFIISRDDSRNTLYLQLNNLKTEDTAVYYCTTVPGSYGYWGQGTLVTVSS
notes: LH: light-chain variable domain at the N-terminus; not shown: human IgG1 Fc moiety
For B4, in assay [1], the binding result is given as “no binding (tested: 1000 nM)”. In assay [2], this molecule showed a Kd of 349 nM, a koff of 0.038 s⁻¹ and a kon of 110000 M⁻¹ s⁻¹.

B5: 42G9.LH scFv-Fc protein (Fc fusion)
chain: EVVLTQSPATLSVSPGERATLSCRASQSVRSNLAWYQQKSGQAPRLLIYGSTIRATGVPARFSGSGSGTEFTLTISSLQSEDFAVYYCQQYSDWPFTFGPGTKVDIKGGGGSGGGGSGGGGSGGGGSQVTLKESGPVLLKPTETLTLTCTVSGFSLSNPRMGVSWIRQPPGKALEWFAHIFSTDEKSLKLSLRSRLTLSKDTSKSQVVLTMTNMAPVDSATYYCARDSSNYEGYFDFWGQGTLVTVSS
notes: as for B4
As for B5, in assay [1], the binding result is listed as “no binding (tested: 1000 nM)”. In assay [2], this molecule displayed a Kd of 22.1 nM, a koff of 0.00088 s⁻¹ and a kon of 40000 M⁻¹ s⁻¹.

B6: 26B9.LH scFv-Fc protein (Fc fusion)
chain: DIVLTQSPLSLPVTPGEPASISCRSSQSLLHRDGFNYLDWFLQKPGQSPQLLIYLASSRASGVPDRFSGSDSGTDFTLKISRVEAEDVGVYYCMQALQTPITFGQGTRLEIKGGGGSGGGGSGGGGSGGGGSEVQLVESWGVLVKPGGSLRLSCAASGFIFNNAWMSWVRQAPGKGLEWIGRIKSKSDGGTTDYAAPVKDRFTISRDDSKDTLYLQMNGLKTEDTAVYFCTTAPGGPFDYWGQGTLVTVSS
notes: as for B4
With B6, the binding result in assay [1] is recorded as “no binding (tested: 1000 nM)”. In assay [2], this molecule had a Kd of 494 nM, a koff of 0.034 s⁻¹ and a kon of 69000 M⁻¹ s⁻¹.

B7: 20E12.HL scFv-Fc protein (Fc fusion)
chain: EVNLVESGGGLVKPGGSLRLSCEASGFTFSYAWMSWVRQAPGKGLEWVGRIKSIADGGATDYAAPVRNRFTISRDDSRNTLYLEMHSLKTEDTAVYYCTTIPGNDAFDMWGQGTMVTVSSGGGGSGGGGSGGGGSGGGGSDIVLTQSPLSLSVTPGEPASISCRSSQSLLYSNGKNYLDWFLHKPGQSPQLLIYLGSNRASGVPDRFSGSGSGIDFILKISRVEAEDVGVYYCMQAQQTPITFGQGTRLEIK
notes: as for B1
In the case of B7, the binding result in assay [1] is reported as “no binding (tested: 1000 nM)”. In assay [2], the affinity, expressed as Kd, was 894 nM; the koff is 0.019 s⁻¹; the kon turned out to be 21000 M⁻¹ s⁻¹.

B8: 30D8.HL scFv-Fc protein (Fc fusion)
chain: EVQLVESGGGLVKPGGSLRLSCEASGFTFSDAWMSWVRQAPGKGLEWVGRIKSKTDGGTTDYVVPLNGRFIISRDDSRNTLYLQLNNLKTEDTAVYYCTTVPGSYGYWGQGTLVTVSSGGGGSGGGGSGGGGSGGGGSDIVMTQSPLSLPVTPGEPASISCRSSQSLLHNKRNNYLDWFLQKPGQSPQLLIYLASNRASGVPDRFSGGGSGTDFTLKISRVEAEDVGVYYCMQAQQTPITFGQGTRLEIK
notes: as for B1
B8: the binding result in assay [1] is “no binding (tested: 1000 nM)”. Besides, in assay [2], the Kd is 225 nM, the koff was 0.053 s⁻¹ and the kon stood at 230000 M⁻¹ s⁻¹.

B9: 42G9.HL scFv-Fc protein (Fc fusion)
chain: QVTLKESGPVLLKPTETLTLTCTVSGFSLSNPRMGVSWIRQPPGKALEWFAHIFSTDEKSLKLSLRSRLTLSKDTSKSQVVLTMTNMAPVDSATYYCARDSSNYEGYFDFWGQGTLVTVSSGGGGSGGGGSGGGGSGGGGSEVVLTQSPATLSVSPGERATLSCRASQSVRSNLAWYQQKSGQAPRLLIYGSTIRATGVPARFSGSGSGTEFTLTISSLQSEDFAVYYCQQYSDWPFTFGPGTKVDIK
notes: as for B1
With B9, the binding result in assay [1] was “no binding (tested: 1000 nM)”. In assay [2], this molecule came in with a Kd of 18.8 nM, a koff of 0.0011 s⁻¹ and a kon of 56000 M⁻¹ s⁻¹.

B10: 14C11.HL scFv-Fc protein (Fc fusion)
chain: QVTLKESGPVLVKPTETLTLTCTVSGFSLNNARMGVSWIRQPPGKALEWFAHIFSTDEKSFRTSLRSRLTLSKDTSKSQVVLTMTNMDPVDTATYYCARDSSNYEGYFDYWGQGILVTVSSGGGGSGGGGSGGGGSGGGGSEIVMTQSPATLSVSPGERATLSCRASQSVSNNLAWYQQKPGQAPRLLIYGASTRATGVPARFSGSDSGTEFSLTISSLQSEDFAVYFCQQYKDWPFTFGPGTKVEIK
notes: as for B1
Turning to B10, in assay [1], the binding result is reported as “no binding (tested: 1000 nM)”. Moreover, in assay [2], binding was put at a Kd of 104 nM, the koff was 0.0043 s⁻¹ and the kon came to 42000 M⁻¹ s⁻¹.

B11: 20B9.LH scFv-Fc protein (Fc fusion)
chain: EIVMTQSPATLSVSPGERATLSCRVSQSIGANLAWYQQKFGQAPRLLIYGASTRATGIPVRFSGGGSGTEFTLTISSLQSEDFAIYSCQQYIYWPFTFGPGTTVDIKGGGGSGGGGSGGGGSGGGGSQVTLKESGPVLVKPTETLTLTCTVSGFSLSNARMGVSWIRQPPGKALEWLGHIFSTDEKSYSTSLRGRITISKDTSRGLVVLTLTNMDPVDTATYYCARDSSNYEGYFDFWGPGFLVTVSS
notes: as for B4
For B11, in assay [1], the binding result is listed as “no binding (tested: 1000 nM)”. In assay [2], the Kd turned out to be 82.7 nM, the koff is 0.0025 s⁻¹ and the kon came out at 30000 M⁻¹ s⁻¹.

B12: 26B9.HL scFv-Fc protein (Fc fusion)
chain: EVQLVESWGVLVKPGGSLRLSCAASGFIFNNAWMSWVRQAPGKGLEWIGRIKSKSDGGTTDYAAPVKDRFTISRDDSKDTLYLQMNGLKTEDTAVYFCTTAPGGPFDYWGQGTLVTVSSGGGGSGGGGSGGGGSGGGGSDIVLTQSPLSLPVTPGEPASISCRSSQSLLHRDGFNYLDWFLQKPGQSPQLLIYLASSRASGVPDRFSGSDSGTDFTLKISRVEAEDVGVYYCMQALQTPITFGQGTRLEIK
notes: as for B1
Take B12: the binding result in assay [1] is “no binding (tested: 1000 nM)”. For the same molecule, in assay [2], the Kd came to 705 nM, the koff came out at 0.04 s⁻¹ and the kon came out at 57000 M⁻¹ s⁻¹.

B13: h62G7-L6/EQ scFv-Fc protein (Fc fusion)
chain: DVVMTQSPLSLPVTLGQPASISCKSSQSLLYSNGKTYLNWFQQRPGQSPRRLIYQVSKLDSGVPDRFSGSGSGTDFTLKISRVEAEDVGVYYCGQDTHFPLTFGGGTKVEIKGGGGSGGGGSGGGGSGGGGSQVQLVQSGAEVKKPGASVKVSCKASGYTFTDYTLHWVRQAPGQGLEWMGGIWPITGGTTYNQKFKGRVTMTRDTSTSTVYMELSSLRSEDTAVYYCARGEAQGSWGQGTLVTVSS
notes: not shown: human IgG1 Fc moiety
Consider B13, for which the binding result in assay [1] was “no binding (tested: 1000 nM)”. In assay [2], this molecule showed a Kd of 101 nM, a koff of 0.076 s⁻¹ and a kon of 750000 M⁻¹ s⁻¹.

B14: 14C11.LH scFv-Fc protein (Fc fusion)
chain: EIVMTQSPATLSVSPGERATLSCRASQSVSNNLAWYQQKPGQAPRLLIYGASTRATGVPARFSGSDSGTEFSLTISSLQSEDFAVYFCQQYKDWPFTFGPGTKVEIKGGGGSGGGGSGGGGSGGGGSQVTLKESGPVLVKPTETLTLTCTVSGFSLNNARMGVSWIRQPPGKALEWFAHIFSTDEKSFRTSLRSRLTLSKDTSKSQVVLTMTNMDPVDTATYYCARDSSNYEGYFDYWGQGILVTVSS
notes: as for B4
For B14, in assay [1], the binding result is “no binding (tested: 1000 nM)”. Also, in assay [2], the equilibrium dissociation constant (Kd) amounted to 136 nM, the koff is 0.0065 s⁻¹ and the kon turned out to be 48000 M⁻¹ s⁻¹.

B15: 32A10.LH scFv-Fc protein (Fc fusion)
chain: EVVMTQSPATLSVSPGERVTLSCRASQSVSSNFAWYQQRPGQAPRLLLYGATTRATGLPGRFSGSGSGTENILTISSLQSEDFAIYFCQQYKDWPFTFGPGSKVDIKGGGGSGGGGSGGGGSGGGGSQVTLKESGPVLVKPTETLTLTCTVSGFSLSNARMGVSWIRQPPGKALEWLAHIFSTDEKSIRRSLRSRLTLSKDTSKSQVVLTMTNMDPVDTATYFCARDSSNYEGYFDYWGQGTLVTVSS
notes: as for B4
As for B15, in assay [1], the binding result is on record as “no binding (tested: 1000 nM)”. In assay [2], this molecule registered a Kd of 29.8 nM, a koff of 0.0012 s⁻¹ and a kon of 41000 M⁻¹ s⁻¹.
